Experimental findings from patent CN116715769A (dated 2023) are described below.

One test concerns the target T1, mouse HVEM (mouse, UniProt Q80WM9).
T1 chain: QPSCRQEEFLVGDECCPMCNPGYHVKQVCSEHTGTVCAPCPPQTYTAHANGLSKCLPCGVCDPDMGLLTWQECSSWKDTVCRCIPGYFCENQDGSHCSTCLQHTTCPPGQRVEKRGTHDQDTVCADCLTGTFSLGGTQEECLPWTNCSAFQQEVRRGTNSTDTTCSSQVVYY
Description: ELISA. (In general: In an ELISA, binding on a coated surface is turned into a signal by an enzyme label.)

The target of a further test is T2, human HVEM (human, UniProt Q92956).
T2 chain: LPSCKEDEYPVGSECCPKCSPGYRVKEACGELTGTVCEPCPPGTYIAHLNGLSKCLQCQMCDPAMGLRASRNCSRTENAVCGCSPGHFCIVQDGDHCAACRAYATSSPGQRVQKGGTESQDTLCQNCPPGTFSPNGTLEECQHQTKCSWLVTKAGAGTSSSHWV
The experiment in a line: SPR. (SPR reads the build-up and loss of mass on a sensor chip optically.)

B1: 26C3 (protein)
chain 1: QVQLQQPGSELVRPGASVKLSCKASGYTFTSYWMHWVKQRPGQGLEWIGDIYPGSDGTNYDEKFKSKATLTVDTSSSTAY
chain 2: DIQMTQTTSSLSASLGDRVTISCRASQDISNSLNWYQQKPDGTVKLLIYYTSRLHSGVPSRFSGSGSGTDYSLTISNLE
In the case of B1, in the test with mouse HVEM, the binding result was “no binding”.

B2: 52B7 (protein)
chain 1: QVQLKQSGPGLVQPSQSLSITCTVSGFSLTIYGVHWIRQSPGKGLEWLGVIWTGGNTDYNAAFMSRLSITKDNSKSQVFF
chain 2: EIVLTQSPALMAASPGEKVTITCSVSSNISSGNLHWYQQKSETSPKPWIYGTSNLASGVPVRFSGSRSGTSYSLTISSME
For B2, the Kd (as a rule, the concentration at which binding is half-saturated) with human HVEM is 0.705 pM. Further, the binding result in the test with mouse HVEM is “no binding”.

B3: 22G5 (protein)
chain 1: EVQLQESGGGLVQPGGSRKLSCAASGFTFSSFGMHWVRQAPEKGLEWVAFISSGSSSIYYADTVKGRFTISRDNPRNTL
chain 2: DVVMTQTPLSLPVSLGDQASISCRSSQSLVHSNGNTYFHWYLQKPGQSPKLLIYKVSNRFSGVPDRFSGSGSGTDFTLKI
As to B3, the binding result with mouse HVEM is “no binding”.
